Measured values as given in patent publication US20250018037A1 (SEOUL NATIONAL UNIVERSITY R AND DB FOUNDATION, published 2025).
No end group written: not given here.

Legend:
[1] = target: T1, Human CD40 on cells (Raji, Daudi, IM-9) (human, UniProt P25942 21-277); experiment: flow cytometry on Raji cells, 1 ug/1x10^5 cells, anti-human Ck-APC (axis hCk); negative control
T1 construct: whole, on cells; also called cell surface CD40; hCD40

[2] = target: Mouse CD40 on cells (A20 lymphoma cells, EL4-mCD40 cells, peritoneal macrophages, splenic dendritic cells) (mouse) (UniProt P27512); experiment: flow cytometry on A20 cells, anti-human Ck-APC (axis hCk); negative control
Sequence of Mouse CD40 on cells (A20 lymphoma cells, EL4-mCD40 cells, peritoneal macrophages, splenic dendritic cells) (mouse) (P27512 20-289): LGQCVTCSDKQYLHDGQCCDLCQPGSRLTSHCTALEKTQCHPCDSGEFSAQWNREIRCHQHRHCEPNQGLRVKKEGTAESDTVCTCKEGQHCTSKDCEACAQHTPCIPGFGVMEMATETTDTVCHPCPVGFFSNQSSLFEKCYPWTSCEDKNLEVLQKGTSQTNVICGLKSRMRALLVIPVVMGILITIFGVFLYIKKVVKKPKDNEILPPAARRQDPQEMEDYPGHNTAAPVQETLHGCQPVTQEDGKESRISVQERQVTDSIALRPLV

[3] = target: T2, Biotin conjugated 6×His peptide (also: biotin conjugated, site not given here); experiment: SPR (Biacore 8K): biotin 6×His peptide captured on immobilized streptavidin, scFv injected in 2-fold dilutions (6 curves)
T2 construct: also called histidine hexamer peptide
T2 peptide: HHHHHH
Description: (§1) Since the murine anti-His antibody had decreased binding affinity against 6×His peptide after humanization, affinity maturation was further performed to increase it and chicken anti-CD40 antibody (2B1) was only humanized. Serial dilution antibodies at 6 concentrations were used to characterize the kinetics of antibody-antigen binding by SPR. […] So, there was not affinity loss against their antigen after humanization (FIG. 22B).
(§2) A Biacore 8K SPR system (Cytiva) equipped with CM5 sensor chip (Cytiva) was used to generate binding kinetic rate and affinity constants. To prepare the capture surfaces for anti-His antibodies, streptavidin was immobilized, followed by biotin conjugated 6×His peptide was captured. The antibodies were 2-fold serial diluted with 1×PBS, then injected at a flow rate of 30 μL/min for 3 minutes, allowing 10 minutes dissociation phase. The surface was regenerated using 10 mM glycine, pH 1.5. The kinetics were analyzed using Biacore 8K evaluation software, version 1.0 (Cytiva). In case of anti-CD40 antibodies, anti-human Fc IgG (Jackson ImmunoResearch) was immobilized, and then CD40-hFc protein (Acro Biosystems, #CD0-H5253) was captured. The antibodies were 2-fold serial diluted with HBS-EP+ buffer (10 mm HEPES, 150 mm sodium chloride, 3 mm EDTA, 0.05% Polysorbate 20), then injected at a flow rate of 30 μL/min for 4 minutes, allowing >15 minutes dissociation phase.

[4] = target: T2, Biotin conjugated 6×His peptide; experiment: SPR, Biacore 8K; reference is the parental murine anti-His antibody
Description: as §1, §2

[5] = target: T2, Biotin conjugated 6×His peptide; experiment: SPR, Biacore 8K, CM5 chip; biotin 6×His peptide captured on streptavidin, scFv injected in 2-fold dilutions
Description: as §1, §2

[6] = target: T3, BSA (bovine serum albumin) (bovine, UniProt P02769 25-607); experiment: serial dilution ELISA on wells with blocking only (the legend calls this the binding to BSA), OD at 405 nm
T3 construct: Control antigen in the phage ELISA
T3 sequence (P02769 25-607 limits assumed): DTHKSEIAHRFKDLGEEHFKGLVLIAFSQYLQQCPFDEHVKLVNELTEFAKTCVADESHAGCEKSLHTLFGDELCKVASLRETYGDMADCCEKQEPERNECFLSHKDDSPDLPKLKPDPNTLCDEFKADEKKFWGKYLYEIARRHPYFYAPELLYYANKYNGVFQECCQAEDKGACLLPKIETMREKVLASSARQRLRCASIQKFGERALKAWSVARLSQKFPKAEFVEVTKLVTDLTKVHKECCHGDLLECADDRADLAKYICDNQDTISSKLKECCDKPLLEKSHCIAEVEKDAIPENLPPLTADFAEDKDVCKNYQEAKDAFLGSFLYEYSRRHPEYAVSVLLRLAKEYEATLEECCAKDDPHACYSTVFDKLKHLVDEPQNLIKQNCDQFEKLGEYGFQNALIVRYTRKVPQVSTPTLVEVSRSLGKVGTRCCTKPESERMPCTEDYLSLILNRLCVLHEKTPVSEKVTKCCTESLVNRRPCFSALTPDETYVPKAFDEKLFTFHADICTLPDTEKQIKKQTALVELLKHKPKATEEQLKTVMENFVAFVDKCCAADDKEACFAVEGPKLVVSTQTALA
Protocol: (§3) FIGS. 20A-C The individual specific binders are screened by ELISA and 23 different scFv clones were further characterized by sequencing. FIG. 20A: Reactivity of the selected scFv clones to human CS1 was assayed by measuring absorbance at 405 nm. The individual scFv clones were reactive to human CS1-His (▪) and human CS1-Fc ( ), but not hFc ( ) or BSA (□).Binding activity determination of selected clones specific to human CS1. The three clones selected from the phage ELISA were verified in a serial dilution ELISA after expression and purification as a form of scFv-Cκ-His. The y-axis of the graphs depicts the signal for serial dilutions of the antibodies, and the x-axis depicts the antibody concentration in the wells of the dilution series. The binding to human CS1-Fc is indicated as red, while the binding to BSA is indicated as blue. […] FIG. 20B: Binding activity of anti-human CS1 cFv-Cκ-His on J558/CS1 or J558 cells measured using flow cytometry. […] Binding of scFv adapters were detected by adding APC conjugated anti-human Cκ antibodies or APC conjugated anti-His tag secondary antibodies. FIG. 20C: Binding activity of anti-human CS1 scFv-Cκ-His on MM1.s cells measured using flow cytometry. Binding of the antibodies were detected by adding either an APC conjugated anti-human Cκ antibodies, or an APC conjugated anti-His tag secondary antibodies, respectively. […]

[7] = target: T4, Human CS1-Fc fusion protein (CS1 ectodomain S23~M226 with C-terminal human IgG1 Fc) (human, UniProt Q9NQ25 23-226); experiment: serial dilution ELISA of purified scFv-Cκ-His on coated hCS1-Fc, OD at 405 nm, detection with anti-human Cκ-HRP
T4 construct: range 23-226; Made in-house in Expi293 cells; also called recombinant CS1-Fc fusion protein; not shown: C-terminal human IgG1 Fc
T4 sequence (looked up): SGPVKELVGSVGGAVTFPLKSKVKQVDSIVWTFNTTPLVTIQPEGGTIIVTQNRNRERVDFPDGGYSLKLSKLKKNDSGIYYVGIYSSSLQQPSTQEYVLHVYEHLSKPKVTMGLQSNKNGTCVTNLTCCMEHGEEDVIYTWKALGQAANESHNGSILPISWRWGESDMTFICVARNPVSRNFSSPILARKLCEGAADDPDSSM
Protocol: as §3

[8] = target: T5, Recombinant mouse CD40-Fc (1215-CD, R&D systems) (mouse, UniProt P27512 24-193, limits assumed); experiment: ELISA, mouse CD40-Fc coated at 2.5 ug/ml, serial dilutions 0.0001 to 1000 nM, anti-human Ck-HRP, absorbance 450 nm
T5 construct: Bought protein; also called recombinant CD40 protein
T5 sequence (looked up): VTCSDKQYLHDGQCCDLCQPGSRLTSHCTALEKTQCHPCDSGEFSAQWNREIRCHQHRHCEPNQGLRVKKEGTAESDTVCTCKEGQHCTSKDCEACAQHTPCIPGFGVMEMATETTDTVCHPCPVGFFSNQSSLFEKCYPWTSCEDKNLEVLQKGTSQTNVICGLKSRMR
Protocol: FIG. 8A: Recombinant mouse CD40-Fc (2.5 μg/ml) was coated in ELISA plate and the serial diluents of C1C02-Cκ or the irrelevant scFv-Cκ were loaded. The bound scFv-Cκs were detected by a secondary anti-human Cκ-HRP followed by a chromogenic reaction with TMB substrate. The absorbance was measured at 450 nm. […] FIG. 8B: A20, a CD40-expressing mouse B lymphoma cell line, was stained with C1C02-Cκ (1 μg/1×10⁵ cells) or the irrelevant scFv-Cκ and then stained with a secondary anti-human Cκ-APC. The binding intensity of the scFv-Cκs was analyzed by flow cytometry. The numbers are the mean fluorescence intensities (MFIs) of the binding.
White leghorn chickens were immunized four times with recombinant mouse CD40 (50324-M08H, Sino Biological, China) or human CD40 (10774-H08H, Sino Biological) protein. Total RNA from the bursa of Fabricius, spleen, and bone marrow was isolated using TRIzol reagent (Invitrogen, USA), and cDNA was synthesized using a SuperScript III first-strand cDNA synthesis kit with oligo (dT) primers (Invitrogen) according to the manufacturer's instructions. The scFv phage-display libraries were constructed from the cDNAs as described previously⁵¹. […] The binding of the scFv-Cκs was measured with the secondary antibody (anti-human Cκ-HRP; AP502P, Sigma-Aldrich, USA).

T1 sequence (P25942 21-277): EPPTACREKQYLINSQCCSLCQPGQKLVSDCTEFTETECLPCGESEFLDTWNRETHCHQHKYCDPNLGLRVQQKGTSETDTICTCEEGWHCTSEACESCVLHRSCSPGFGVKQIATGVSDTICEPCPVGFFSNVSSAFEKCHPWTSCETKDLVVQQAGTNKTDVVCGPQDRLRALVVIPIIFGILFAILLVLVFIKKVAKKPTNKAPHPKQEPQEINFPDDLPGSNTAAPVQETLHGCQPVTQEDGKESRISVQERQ

Irrelevant Ab-Ck (scFv)
MFI [1]: 3.78
MFI [2]: 24.6

B1: Humanized and affinity maturated anti-His scFv (hu3D5M) (scFv)
scFv: DIVMTQSPLSLPVTPGEPASISCRSSQSIVHSNRNTYLEWYLQKPGQSPQLLIYKVSNRFSGVPDRFSGSGSGTDFTLKISRVEAEDVGVYYCFQGSHVPFTFGQGTKLEIKRGGGGSGGGGSGGGGSGGGGSQVQLVQSGAEVKKPGASVKVSCKASGYTFTDYYMNWVRQAPGQGLEWMGDINPNHGGTYYNHKFKGRVTMTVDTSTSTAYMELRSLRSDDTAVYYCESQSGAYWGQGTTVTVSS
notes: also called humanized anti-His
koff [3]: 0.00094 s⁻¹
kon [3]: 437000 M⁻¹ s⁻¹
fold higher affinity than parental antibody [4]: 5.8 fold
Kd [5]: 2.15 nM

B2: hCS1(#57)-Ck-His (anti-human CS1 scFv-Cκ-(G4S)2-6×His, clone #57) (scFv)
scFv: QAALTQPSSVSANLGETVKITCSGSSGNNYGWYQQKSPGSAPVTVIYYNDNRPSDIPSRFSGSKSGSTHTLTITGVQADDEAVYFCGSGDSSSNPGIFGAGTTLTVLGQSSRSSGGGGSSGGGGSAVTLDESGGGLQTPGGALSLVCKASGFTFSSHGMAWVRQAPGKGLEWVAGIDDSGSSTGYGSAVKGRATISRDNGQSTVRLQLNNLRAEDTGIYYCAKAYDTGCGWAGYNVYDCSADQIDAWGHGTEVIVSSTSGQAGQRTVAAPSVFIFPPSDEQLKSGTASVVCLLNNFYPREAKVQWKVDNALQSGNSQESVTEQDSKDSTYSLSSTLTLSKADYEKHKVYACEVTHQGLSSPVTKSFNRGESGGGGSGGGGSHHHHHH
notes: also called #57 clone; His tagged CS1 adaptor
binding result [6]: no binding
EC50 [7]: 9.3 nM

B3: hCS1(#87)-Ck-His (anti-human CS1 scFv-Cκ-(G4S)2-6×His, clone #87) (scFv)
scFv: QAALTQPSSVSANPGETVKITCSGGGSYYGWYQQKSPGSAPVTVIYGNDKRPSNIPSRFSGSKSGSTATLTITGVQVEDEAVYFCGGWDSTDAGTFGAGTTLTVLGQSSRSSGGGGSSGGGGSAVTLDESGGGLQTPGGGLSLVCKASGFTFSSHGMAWVRQAPGKGLEWVAGIDDSGSSTGYGSAVKGRATISRDNGQSTVRLQLNNLRAEDTGIYYCAKAYDTGCGWAGYNVYDCSADQIDAWGHGTEVIVSSTSGQAGQRTVAAPSVFIFPPSDEQLKSGTASVVCLLNNFYPREAKVQWKVDNALQSGNSQESVTEQDSKDSTYSLSSTLTLSKADYEKHKVYACEVTHQGLSSPVTKSFNRGESGGGGSGGGGSHHHHHH
notes: also called #87 clone; His tagged CS1 adaptor
binding result [6]: no binding
EC50 [7]: 2.9 nM

B4: C1C02-Cκ (anti-mouse CD40 scFv clone C1C02 fused with human immunoglobulin kappa light chain constant region) (scFv)
scFv: QAALTQPSSVSANPGETVKITCSGGSSNYGWYQQKSPGSAPATVIYDNTNRPSDIPSRFSGALSGSTATLTITGVQVEDEAVYYCGGYDSGTYAGIFGAGTTLTVLGQSSRSSGGGGSSGGGGSAVTLDESGGGLQTPGGTLSLACKGSGFTFSSVNMQWVRQAPGKGLEWVAGISSDGSYTAYGAAVKGRATISRDNGQSTVRLQLNNLRAEDTAIYYCAKIAGGYYWDAAYSIDMWGHGTEVIVSSTSGQAGQRTVAAPSVFIFPPSDEQLKSGTASVVCLLNNFYPREAKVQWKVDNALQSGNSQESVTEQDSKDSTYSLSSTLTLSKADYEKHKVYACEVTHQGLSSPVTKSFNRGES
notes: also called C1C02 scFv; anti-mouse CD40 antibody (clone C1C02)
EC50 [8]: 1.28 nM
